How the values were obtained:
[1] = molecular target: Actin, cytoplasmic 1 (human) (UniProt P60709); experiment: PIF affinity resin pull-down, CD8+ cell lysate, LC-MS/MS count
[2] = molecular target: Serine/arginine-rich-splicing factor 1 (human) (UniProt Q07955); experiment: as above
Serum albumin (human) [3] = molecular target: Serum albumin (human) (UniProt P02768); experiment: as above
Talin-1 (human) = Talin-1 (human) (UniProt Q9Y490); experiment: as above
[4] = molecular target: 14-3-3 protein zeta/delta (human) (UniProt P63104); experiment: PIF affinity resin pull-down, CD4+ cell lysate, LC-MS/MS count
[5] = molecular target: Acidic leucine-rich nuclear phosphoprotein 32 family member A (human) (UniProt P39687); experiment: as above
[6] = molecular target: Actin, cytoplasmic 1 (human) (UniProt P60709); experiment: as above
Calmodulin (human) = Calmodulin (human) (UniProt P0DP23); experiment: as above
Calreticulin (human) = Calreticulin (human) (UniProt P27797); experiment: as above
[7] = molecular target: Cartilage oligomeric matrix protein (human) (UniProt P49747); experiment: as above
Cofilin-1 (human) = Cofilin-1 (human) (UniProt P23528); experiment: as above
[8] = molecular target: Glucosidase 2 subunit beta (human) (UniProt P14314); experiment: as above
[9] = molecular target: Hepatoma-derived growth factor (human) (UniProt P51858); experiment: as above
[10] = molecular target: Histone H2A type 1-B/E (human) (UniProt P04908); experiment: as above
[11] = molecular target: Isoform 11 of Titin (human) (UniProt Q8WZ42); experiment: as above
[12] = molecular target: Isoform 2 of Heat shock protein HSP 90-alpha (human) (UniProt P07900); experiment: as above
Nucleolin (human) = Nucleolin (human) (UniProt P19338); experiment: as above
[13] = molecular target: Serine/arginine-rich-splicing factor 2 (human) (UniProt Q01130); experiment: as above
Serum albumin (human) [14] = molecular target: Serum albumin (human) (UniProt P02768); experiment: as above
[15] = molecular target: Serum deprivation-response protein (human) (UniProt O95810); experiment: as above
[16] = molecular target: Thrombin light chain (human) (UniProt P00734); experiment: as above
Thrombospondin-1 (human) = Thrombospondin-1 (human) (UniProt P07996); experiment: as above
Thymosin alpha-1 (human) = Thymosin alpha-1 (human) (UniProt P06454); experiment: as above
[17] = molecular target: Tropomyosin alpha-4 chain (human) (UniProt P67936); experiment: as above
Chain of Tropomyosin alpha-4 chain (human) (P67936 2-248 limits assumed): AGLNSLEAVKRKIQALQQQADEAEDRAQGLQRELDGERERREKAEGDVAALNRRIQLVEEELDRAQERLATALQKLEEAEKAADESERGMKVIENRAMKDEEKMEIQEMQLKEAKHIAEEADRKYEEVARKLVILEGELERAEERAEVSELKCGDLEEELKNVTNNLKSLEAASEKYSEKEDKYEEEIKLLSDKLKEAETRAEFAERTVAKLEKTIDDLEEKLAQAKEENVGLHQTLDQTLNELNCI

Chain of Nucleolin (human) (P19338 2-710 limits assumed): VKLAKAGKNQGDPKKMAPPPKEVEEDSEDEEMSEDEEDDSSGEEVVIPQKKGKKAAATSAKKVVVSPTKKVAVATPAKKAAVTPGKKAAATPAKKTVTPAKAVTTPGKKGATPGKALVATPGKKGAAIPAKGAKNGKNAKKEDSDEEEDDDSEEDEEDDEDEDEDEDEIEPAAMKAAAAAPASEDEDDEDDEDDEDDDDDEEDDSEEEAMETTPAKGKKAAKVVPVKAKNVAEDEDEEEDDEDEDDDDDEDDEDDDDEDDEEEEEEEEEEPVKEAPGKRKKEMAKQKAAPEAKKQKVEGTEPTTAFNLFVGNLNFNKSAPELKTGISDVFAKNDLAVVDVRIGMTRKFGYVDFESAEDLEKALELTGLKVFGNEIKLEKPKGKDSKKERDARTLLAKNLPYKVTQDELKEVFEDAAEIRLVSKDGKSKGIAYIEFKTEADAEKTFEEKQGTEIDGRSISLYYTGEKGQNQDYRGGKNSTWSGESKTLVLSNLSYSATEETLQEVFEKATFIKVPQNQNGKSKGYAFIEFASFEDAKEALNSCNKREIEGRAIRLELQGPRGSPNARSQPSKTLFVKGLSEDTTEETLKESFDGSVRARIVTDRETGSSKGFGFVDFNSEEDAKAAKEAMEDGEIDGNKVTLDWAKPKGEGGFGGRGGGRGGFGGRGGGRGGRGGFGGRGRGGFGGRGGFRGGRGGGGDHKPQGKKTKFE
Chain of Cartilage oligomeric matrix protein (human) (P49747 21-757 limits assumed): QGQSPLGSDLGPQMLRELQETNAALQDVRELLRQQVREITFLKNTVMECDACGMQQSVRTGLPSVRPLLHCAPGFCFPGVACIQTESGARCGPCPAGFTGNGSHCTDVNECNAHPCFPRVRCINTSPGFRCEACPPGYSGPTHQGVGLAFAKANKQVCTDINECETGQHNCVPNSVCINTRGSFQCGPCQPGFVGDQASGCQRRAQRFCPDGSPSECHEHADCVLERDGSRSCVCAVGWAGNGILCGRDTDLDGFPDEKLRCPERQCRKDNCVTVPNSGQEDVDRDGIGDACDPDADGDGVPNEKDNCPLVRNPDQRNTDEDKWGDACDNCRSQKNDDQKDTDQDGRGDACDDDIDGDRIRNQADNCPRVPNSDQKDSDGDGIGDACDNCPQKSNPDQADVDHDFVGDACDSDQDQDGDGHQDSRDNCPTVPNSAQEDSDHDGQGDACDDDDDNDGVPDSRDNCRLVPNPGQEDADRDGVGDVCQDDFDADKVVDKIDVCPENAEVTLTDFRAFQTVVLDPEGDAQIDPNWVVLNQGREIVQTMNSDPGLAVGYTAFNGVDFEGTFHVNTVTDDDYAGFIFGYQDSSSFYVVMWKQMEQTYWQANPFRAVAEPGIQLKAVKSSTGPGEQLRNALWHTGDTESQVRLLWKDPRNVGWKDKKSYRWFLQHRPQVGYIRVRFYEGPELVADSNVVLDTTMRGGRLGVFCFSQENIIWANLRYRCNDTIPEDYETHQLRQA
Chain of Serine/arginine-rich-splicing factor 1 (human) (Q07955 2-248 limits assumed): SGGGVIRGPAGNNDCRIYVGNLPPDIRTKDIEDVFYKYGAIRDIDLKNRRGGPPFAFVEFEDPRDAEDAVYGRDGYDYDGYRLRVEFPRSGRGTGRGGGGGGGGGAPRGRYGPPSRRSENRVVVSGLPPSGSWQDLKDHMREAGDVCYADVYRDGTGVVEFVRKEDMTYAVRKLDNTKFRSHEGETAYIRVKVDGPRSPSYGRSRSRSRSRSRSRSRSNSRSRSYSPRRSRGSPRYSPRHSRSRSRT
Chain of 14-3-3 protein zeta/delta (human) (P63104 whole entry, stated change not applied): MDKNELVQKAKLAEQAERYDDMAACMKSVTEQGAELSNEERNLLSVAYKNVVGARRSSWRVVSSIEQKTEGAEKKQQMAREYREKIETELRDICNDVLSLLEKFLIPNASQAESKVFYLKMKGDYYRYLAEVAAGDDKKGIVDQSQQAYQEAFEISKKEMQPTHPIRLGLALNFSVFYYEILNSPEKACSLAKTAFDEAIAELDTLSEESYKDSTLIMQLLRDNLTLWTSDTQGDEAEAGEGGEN
Chain of Cofilin-1 (human) (P23528 2-166 limits assumed): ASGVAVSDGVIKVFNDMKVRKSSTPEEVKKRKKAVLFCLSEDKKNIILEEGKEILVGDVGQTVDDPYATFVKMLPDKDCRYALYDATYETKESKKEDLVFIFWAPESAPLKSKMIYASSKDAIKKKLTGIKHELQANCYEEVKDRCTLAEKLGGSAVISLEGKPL
Chain of Serine/arginine-rich-splicing factor 2 (human) (Q01130 2-221 limits assumed): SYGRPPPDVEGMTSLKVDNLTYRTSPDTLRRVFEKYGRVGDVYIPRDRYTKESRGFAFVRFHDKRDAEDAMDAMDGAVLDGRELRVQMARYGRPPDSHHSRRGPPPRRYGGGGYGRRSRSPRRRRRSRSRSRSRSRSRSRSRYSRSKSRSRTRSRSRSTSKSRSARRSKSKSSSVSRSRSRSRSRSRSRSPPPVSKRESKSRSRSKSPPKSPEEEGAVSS
Chain of Thymosin alpha-1 (human) (P06454 other isoform, or with tags, fused parts or gaps limits assumed): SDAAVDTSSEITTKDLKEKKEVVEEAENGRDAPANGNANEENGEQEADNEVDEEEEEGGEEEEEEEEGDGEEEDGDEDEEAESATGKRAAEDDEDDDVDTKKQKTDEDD
Chain of Hepatoma-derived growth factor (human) (P51858 whole entry): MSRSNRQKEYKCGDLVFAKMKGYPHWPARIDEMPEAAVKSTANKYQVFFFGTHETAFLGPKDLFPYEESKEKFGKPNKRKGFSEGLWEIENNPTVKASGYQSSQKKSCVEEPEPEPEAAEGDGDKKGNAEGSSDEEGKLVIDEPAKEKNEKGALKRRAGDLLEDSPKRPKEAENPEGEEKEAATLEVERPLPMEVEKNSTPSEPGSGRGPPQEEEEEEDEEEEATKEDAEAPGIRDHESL
Chain of Calreticulin (human) (P27797 18-417 limits assumed): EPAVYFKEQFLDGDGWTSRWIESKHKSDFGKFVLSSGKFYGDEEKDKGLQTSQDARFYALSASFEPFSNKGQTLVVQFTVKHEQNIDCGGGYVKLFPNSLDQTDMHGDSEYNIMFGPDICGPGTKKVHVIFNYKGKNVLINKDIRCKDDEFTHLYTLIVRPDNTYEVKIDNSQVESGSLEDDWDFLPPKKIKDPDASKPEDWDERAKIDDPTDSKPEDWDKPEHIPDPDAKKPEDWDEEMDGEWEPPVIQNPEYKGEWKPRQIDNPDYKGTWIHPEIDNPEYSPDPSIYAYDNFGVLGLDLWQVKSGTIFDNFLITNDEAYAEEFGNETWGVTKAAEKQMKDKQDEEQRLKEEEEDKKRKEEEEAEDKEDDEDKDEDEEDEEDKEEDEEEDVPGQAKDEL
Chain of Serum deprivation-response protein (human) (O95810 2-425 limits assumed): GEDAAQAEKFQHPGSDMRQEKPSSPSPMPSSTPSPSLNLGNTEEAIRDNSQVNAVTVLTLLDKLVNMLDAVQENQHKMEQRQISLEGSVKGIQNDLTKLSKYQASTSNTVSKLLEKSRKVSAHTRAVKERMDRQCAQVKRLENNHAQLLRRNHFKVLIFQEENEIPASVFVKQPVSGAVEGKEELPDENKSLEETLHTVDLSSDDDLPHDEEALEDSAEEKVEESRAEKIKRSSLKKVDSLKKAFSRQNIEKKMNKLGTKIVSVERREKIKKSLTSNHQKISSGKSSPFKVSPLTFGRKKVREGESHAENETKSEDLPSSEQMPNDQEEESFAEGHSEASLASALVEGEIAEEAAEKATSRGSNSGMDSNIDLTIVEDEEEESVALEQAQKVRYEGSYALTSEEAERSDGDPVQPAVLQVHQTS
Chain of Glucosidase 2 subunit beta (human) (P14314 other isoform, or with tags, fused parts or gaps limits assumed): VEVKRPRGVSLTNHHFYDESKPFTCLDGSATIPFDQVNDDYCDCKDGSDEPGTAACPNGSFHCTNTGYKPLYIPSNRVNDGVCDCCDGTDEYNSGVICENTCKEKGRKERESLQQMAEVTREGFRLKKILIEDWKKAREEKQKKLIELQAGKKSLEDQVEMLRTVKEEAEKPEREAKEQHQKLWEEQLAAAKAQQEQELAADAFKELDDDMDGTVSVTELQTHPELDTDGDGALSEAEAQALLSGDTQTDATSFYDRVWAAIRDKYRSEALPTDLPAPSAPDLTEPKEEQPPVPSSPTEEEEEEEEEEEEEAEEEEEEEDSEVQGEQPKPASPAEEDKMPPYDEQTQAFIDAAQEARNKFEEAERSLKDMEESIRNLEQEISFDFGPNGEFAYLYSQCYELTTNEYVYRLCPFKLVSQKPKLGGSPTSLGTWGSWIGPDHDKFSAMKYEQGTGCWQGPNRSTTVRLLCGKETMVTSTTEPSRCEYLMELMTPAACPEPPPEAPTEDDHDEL
Chain of Acidic leucine-rich nuclear phosphoprotein 32 family member A (human) (P39687 whole entry): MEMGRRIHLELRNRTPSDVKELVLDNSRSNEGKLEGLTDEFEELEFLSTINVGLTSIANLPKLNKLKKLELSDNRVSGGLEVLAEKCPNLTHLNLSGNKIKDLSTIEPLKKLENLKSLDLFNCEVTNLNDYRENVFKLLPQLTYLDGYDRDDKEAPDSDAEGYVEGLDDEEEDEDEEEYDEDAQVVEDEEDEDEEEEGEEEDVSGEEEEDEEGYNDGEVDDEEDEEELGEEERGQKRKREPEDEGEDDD

PIF15 affinity resin (Cys-C6 spacer-PIF15 conjugated to agarose) (peptide)
Ave [1]: 3 | Inject 1 [1]: 3 | Inject 2 [1]: 3 | Inject 3 [1]: 3 | Ave [2]: 1 | Inject 1 [2]: 1 | Inject 2 [2]: 1 | Inject 3 [2]: 1 | Ave (Serum albumin (human) [3]): 6 | Inject 1 (Serum albumin (human) [3]): 3 | Inject 2 (Serum albumin (human) [3]): 6 | Inject 3 (Serum albumin (human) [3]): 8 | Ave (Talin-1 (human)): 1 | Inject 1 (Talin-1 (human)): 1 | Inject 2 (Talin-1 (human)): 1 | Inject 3 (Talin-1 (human)): 1 | Ave [4]: 3 | Inject 1 [4]: 3 | Inject 2 [4]: 3 | Inject 3 [4]: 3 | Ave [5]: 1 | Inject 1 [5]: 1 | Inject 2 [5]: 1 | Inject 3 [5]: 1 | Ave [6]: 2 | Inject 1 [6]: 2 | Inject 2 [6]: 2 | Inject 3 [6]: 2 | Ave (Calmodulin (human)): 3 | Inject 1 (Calmodulin (human)): 3 | Inject 2 (Calmodulin (human)): 3 | Inject 3 (Calmodulin (human)): 3 | Ave (Calreticulin (human)): 4 | Inject 1 (Calreticulin (human)): 4 | Inject 2 (Calreticulin (human)): 4 | Inject 3 (Calreticulin (human)): 4 | Ave [7]: 10 | Inject 1 [7]: 10 | Inject 2 [7]: 10 | Inject 3 [7]: 11 | Ave (Cofilin-1 (human)): 1 | Inject 1 (Cofilin-1 (human)): 1 | Inject 2 (Cofilin-1 (human)): 1 | Inject 3 (Cofilin-1 (human)): 1 | Ave [8]: 1 | Inject 1 [8]: 1 | Inject 2 [8]: 1 | Inject 3 [8]: 1 | Ave [9]: 3 | Inject 1 [9]: 3 | Inject 2 [9]: 3 | Inject 3 [9]: 3 | Ave [10]: 2 | Inject 1 [10]: 2 | Inject 2 [10]: 2 | Inject 3 [10]: 2 | Ave [11]: 2 | Inject 1 [11]: 2 | Inject 2 [11]: 2 | Inject 3 [11]: 2 | Ave [12]: 4 | Inject 1 [12]: 4 | Inject 2 [12]: 4 | Inject 3 [12]: 4 | Ave (Nucleolin (human)): 2 | Inject 1 (Nucleolin (human)): 2 | Inject 2 (Nucleolin (human)): 2 | Inject 3 (Nucleolin (human)): 2 | Ave [13]: 2 | Inject 1 [13]: 1 | Inject 2 [13]: 2 | Inject 3 [13]: 3 | Ave (Serum albumin (human) [14]): 8 | Inject 1 (Serum albumin (human) [14]): 4 | Inject 2 (Serum albumin (human) [14]): 7 | Inject 3 (Serum albumin (human) [14]): 12 | Ave [15]: 2 | Inject 1 [15]: 2 | Inject 2 [15]: 2 | Inject 3 [15]: 2 | Ave [16]: 3 | Inject 1 [16]: 3 | Inject 2 [16]: 3 | Inject 3 [16]: 3 | Ave (Thrombospondin-1 (human)): 6 | Inject 1 (Thrombospondin-1 (human)): 6 | Inject 2 (Thrombospondin-1 (human)): 6 | Inject 3 (Thrombospondin-1 (human)): 6 | Ave (Thymosin alpha-1 (human)): 5 | Inject 1 (Thymosin alpha-1 (human)): 4 | Inject 2 (Thymosin alpha-1 (human)): 5 | Inject 3 (Thymosin alpha-1 (human)): 7 | Ave [17]: 4 | Inject 1 [17]: 4 | Inject 2 [17]: 4 | Inject 3 [17]: 4

From patent US20180318386A1, “PEPTIDES AND METHODS OF TREATING ENDOMETRIOSIS USING THE SAME” (BIOINCEPT, LLC, priority 2014, published 2018)
